Patent publication US20090048158A1, “Insulin-Like Growth Factor Binding Protein-4 Compounds and Methods for Inhibiting Angiogenesis and Tumor Growth in Mammalian Cells” (priority 2005, published 2009)

Tested on: human brain endothelial cells (HBEC)
Assay: Confocal microscopy internalization
Type: cell-based
Conditions: 100 nM AF647-CBP-4, 90 min (labelled IGFBP-4: unpublished observation)
Description: HBEC (100000 cell/well in a 24-well format plate) were seeded on human fibronectin- (40 μg/ml) coated cover slips (Bellco Biotechnology) in 400 μl HBEC media and grown until reached 80% confluence. Cells were then washed twice with D-MEM and incubated in D-MEM for 30 min at 37 C. Then, D-MEM was removed and replaced with 250 μl/well of D-MEM containing 100 nM AF647-CBP-4 conjugate for 90 min and then washed with PBS. Cells were counterstained with the membrane dye DiOC5(3) for 15 seconds and then washed with PBS. Imaging of cells was performed using Zeiss LSM 410 (Carl Zeiss, Thornwood, N.Y., USA) inverted laser scanning microscope equipped with an Argon\Krypton ion laser and a Plan-Apochromat 63X, NA 1.4. Confocal images of two fluoroprobes were sequentially obtained using 488 and 647 nm excitation laser lines to detect DiOC5(3) (510-525 nm emission) and Alexa 647 fluorescence (670-810 nm emission).

B1: fluorescently-labeled IGFBP-4: fluorescently-labeled IGFBP-4, unpublished observations (conjugate, UniProt P22692 22-258, looked up)
Insulin-like growth …: DEAIHCPPCSEEKLARCRPPVGCEELVREPGCGCCATCALGLGMPCGVYTPRCGSGLRCYPPRGVEKPLHTLMHGQGVCMELAEIEAIQESLQPSDKDEGDHPNNSFSPCSAHDRRCLQKHFAKIRDRSTSGGKMKVNGAPREDARPVPQGSCQSELHRALERLAASQSRTHEDLYIIPIPNCDRNGNFHPKQCHPALDGQRGKCWCVDRKTGVKLPGGLEPKGELDCHQLADSFRE
modifications: fluorescent label
notes: fluorescently-labeled IGFBP-4, unpublished observations
internalization into HBEC: internalized into HBEC
